Laboratory results published in patent US20080160015A1.

Tests used:
[1] = molecular target: human monoclonal anti-C1 domain of Factor VIII inhibitory antibody RHD5; assay: cell-based or functional assay
[2] = molecular target: human monoclonal anti-C1 domain of Factor VIII inhibitory antibody RHD5; assay: SPR (BIAcore), RHD5 immobilized on CM5, 18B6 infused
[3] = molecular target: human monoclonal anti-C1 domain of Factor VIII inhibitory antibody RHD5; assay: competition ELISA: 18B6 with RHD5 2 µg/ml, RHD5 binding to coated recFVIII detected
[4] = molecular target: human monoclonal anti-C1 domain of Factor VIII inhibitory antibody RHD5; assay: competition ELISA: 18B6 at 25 µg/ml with RHD5 2 µg/ml, RHD5 binding to coated recFVIII detected
[5] = molecular target: human monoclonal anti-C1 domain of Factor VIII inhibitory antibody RHD5; assay: competition ELISA: 18B6 at 50 µg/ml with RHD5 2 µg/ml, RHD5 binding to coated recFVIII detected
[6] = molecular target: human monoclonal anti-C1 domain of Factor VIII inhibitory antibody RHD5; assay: competition ELISA: 18B6 at 0.39 µg/ml with RHD5 2 µg/ml, RHD5 binding to coated recFVIII detected
[7] = molecular target: human monoclonal anti-C1 domain of Factor VIII inhibitory antibody RHD5; assay: competition ELISA: 18B6 at 0.78 µg/ml with RHD5 2 µg/ml, RHD5 binding to coated recFVIII detected
[8] = molecular target: human monoclonal anti-C1 domain of Factor VIII inhibitory antibody RHD5; assay: competition ELISA: 18B6 at 1.56 µg/ml with RHD5 2 µg/ml, RHD5 binding to coated recFVIII detected
[9] = molecular target: human monoclonal anti-C1 domain of Factor VIII inhibitory antibody RHD5; assay: competition ELISA: 18B6 at 12.5 µg/ml with RHD5 2 µg/ml, RHD5 binding to coated recFVIII detected
[10] = molecular target: human monoclonal anti-C1 domain of Factor VIII inhibitory antibody RHD5; assay: competition ELISA: 18B6 at 3.12 µg/ml with RHD5 2 µg/ml, RHD5 binding to coated recFVIII detected
[11] = molecular target: human monoclonal anti-C1 domain of Factor VIII inhibitory antibody RHD5; assay: competition ELISA: 18B6 at 6.25 µg/ml with RHD5 2 µg/ml, RHD5 binding to coated recFVIII detected
[12] = molecular target: human monoclonal anti-C1 domain of Factor VIII inhibitory antibody RHD5; assay: competition ELISA: 18B6 at 0.098 µg/ml with RHD5 2 µg/ml, RHD5 binding to coated recFVIII detected
[13] = molecular target: human monoclonal anti-C1 domain of Factor VIII inhibitory antibody RHD5; assay: competition ELISA: 18B6 at 0.195 µg/ml with RHD5 2 µg/ml, RHD5 binding to coated recFVIII detected
[14] = molecular target: human monoclonal anti-C1 domain of Factor VIII inhibitory antibody RHD5; assay: competition ELISA: supernatant preincubated with RHD5 (0.6 µg/ml), RHD5 binding to coated recFVIII detected

Neutralisation (%) of RHD5 (0.4 µg/ml) inhibitory activity, chromogenic FVIII assay, anti-Id at 0.0002 µg/ml [1]: 0%
Neutralisation (%) of RHD5 (0.4 µg/ml) inhibitory activity, chromogenic FVIII assay, anti-Id at 0.0006 µg/ml [1]: 6.7%
Neutralisation (%) of RHD5 (0.4 µg/ml) inhibitory activity, chromogenic FVIII assay, anti-Id at 0.00183 µg/ml [1]: 8.9%
Neutralisation (%) of RHD5 (0.4 µg/ml) inhibitory activity, chromogenic FVIII assay, anti-Id at 0.0055 µg/ml [1]: 6.7%
Neutralisation (%) of RHD5 (0.4 µg/ml) inhibitory activity, chromogenic FVIII assay, anti-Id at 0.0165 µg/ml [1]: 8.8%
Neutralisation (%) of RHD5 (0.4 µg/ml) inhibitory activity, chromogenic FVIII assay, anti-Id at 0.049 µg/ml [1]: 11%
Neutralisation (%) of RHD5 (0.4 µg/ml) inhibitory activity, chromogenic FVIII assay, anti-Id at 0.148 µg/ml [1]: 27.4%
Neutralisation (%) of RHD5 (0.4 µg/ml) inhibitory activity, chromogenic FVIII assay, anti-Id at 0.44 µg/ml [1]: 54.3%
Neutralisation (%) of RHD5 (0.4 µg/ml) inhibitory activity, chromogenic FVIII assay, anti-Id at 1.33 µg/ml [1]: 81.2%
Neutralisation (%) of RHD5 (0.4 µg/ml) inhibitory activity, chromogenic FVIII assay, anti-Id at 4 µg/ml [1]: 89.5%
Neutralization: functional test (chromogenic FVIII assay, RHD5 1 µg/ml with supernatant, FVIII Kogenate 0.5 U/ml) [1]: 100%
neutralisation of RHD5 inhibitory activity at an equimolar RHD5/18B6 ratio [1]: 50%
Kd [2]: 3.4 nM
koff [2]: 1.45e-05 s⁻¹
kon [2]: 4260 M⁻¹ s⁻¹
inhibition of binding at an equimolar ratio (%) [3]: 92%
molar ratio RHD5/18B6 at 50% inhibition (molar ratio RHD5/18B6) [3]: 2.5
Inhibition of binding (%) [4]: 97.2%
Inhibition of binding (%) [5]: 96.1%
Inhibition of binding (%) [6]: 9.2%
Inhibition of binding (%) [7]: 50.3%
Inhibition of binding (%) [8]: 90.3%
Inhibition of binding (%) [9]: 96.9%
Inhibition of binding (%) [10]: 94.1%
Inhibition of binding (%) [11]: 96.7%
Inhibition of binding (%) [12]: 0%
Inhibition of binding (%) [13]: 0%
Inhibition: Elisa (%) [14]: 93.1%
B1: monoclonal anti-idiotypic antibody 18B6 (antibody, V domains shown)
VH: QVQLQQSGAELAKPGASVKMSCKASGYTFTTYWMHWIKQRPGQDLEWIGYINPTSGYTEYNQNFKDKATLTADKSSSTAYMQLNSLTSEDSAVYFCARSGAYYRYDDAMDSWGQGTSVTVSS
VL: QIVLSQSPAILSASPGEKVTMTCRASSSVSYMNWYQQKPGSSPKPWIYATSNLASGVPARFSGSGSGTSYSLTISRVEAEDAATYYCQQWSSNPPMLTFGAGTKLELK
modifications: mouse IgG1 kappa constant regions
